{"source": "the supplement of paper PMC9112550", "about": "“Optimization of the antimicrobial peptide Bac7 by deep mutational scanning” (BMC Biology, 2022);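 note: peptides expressed intracellularly from a pBAD plasmid library in pooled LB shake-flask culture, induced with 0.3% L-arabinose, DNA abundance read by NGS, three biological replicates, DESeq2 with apeglm shrinkage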"}
{"tested_on": "Escherichia coli TOP10", "test": "shrunken log2 fold change of peptide-encoding DNA abundance (4.5 h post-induction vs induction); higher = less antimicrobial activity (less host growth inhibition)", "settings": "time post-induction: 4.5 h; library: site-saturation at positions 5, 18, 19, 20"}
{"sequence": "RRIRTRPPRLPRPRPRPETPPRP", "shrunken log2 fold change": 0.493}
{"sequence": "RRIRRRPPRLPRPRPRPRWLPRP", "shrunken log2 fold change": 0.388}
{"sequence": "RRIRERPPRLPRPRPRPTCWPRP", "shrunken log2 fold change": 0.0288}
{"sequence": "RRIRHRPPRLPRPRPRPVHIPRP", "shrunken log2 fold change": -0.035}
{"sequence": "RRIRMRPPRLPRPRPRPPMGPRP", "shrunken log2 fold change": 0.921}
{"sequence": "RRIRGRPPRLPRPRPRPGIVPRP", "shrunken log2 fold change": 0.957}
{"sequence": "RRIRVRPPRLPRPRPRPYPNPRP", "shrunken log2 fold change": 0.0262}
{"sequence": "RRIRMRPPRLPRPRPRPQFVPRP", "shrunken log2 fold change": -0.0894}
{"sequence": "RRIRWRPPRLPRPRPRPDDEPRP", "shrunken log2 fold change": 0.606}
{"sequence": "RRIRWRPPRLPRPRPRPMVEPRP", "shrunken log2 fold change": 0.35}
{"sequence": "RRIRPRPPRLPRPRPRPKWWPRP", "shrunken log2 fold change": 0.235}
{"sequence": "RRIRIRPPRLPRPRPRPFWRPRP", "shrunken log2 fold change": -0.00848}
{"sequence": "RRIRVRPPRLPRPRPRPGPLPRP", "shrunken log2 fold change": 0.0392}
{"sequence": "RRIRIRPPRLPRPRPRPKWYPRP", "shrunken log2 fold change": -0.22}
{"sequence": "RRIRRRPPRLPRPRPRPHQDPRP", "shrunken log2 fold change": 0.0414}
{"sequence": "RRIRKRPPRLPRPRPRPFGWPRP", "shrunken log2 fold change": 0.682}
{"sequence": "RRIRSRPPRLPRPRPRPYSPPRP", "shrunken log2 fold change": -0.839}
{"sequence": "RRIRIRPPRLPRPRPRPINIPRP", "shrunken log2 fold change": -1.41}
{"sequence": "RRIRKRPPRLPRPRPRPDWDPRP", "shrunken log2 fold change": -0.193}
{"sequence": "RRIRPRPPRLPRPRPRPAKHPRP", "shrunken log2 fold change": -0.023}
{"sequence": "RRIRYRPPRLPRPRPRPIQWPRP", "shrunken log2 fold change": -0.00101}
{"sequence": "RRIRCRPPRLPRPRPRPMPGPRP", "shrunken log2 fold change": 0.0112}
{"sequence": "RRIRQRPPRLPRPRPRPAWCPRP", "shrunken log2 fold change": 0.0518}
{"sequence": "RRIRIRPPRLPRPRPRPGMKPRP", "shrunken log2 fold change": -0.126}
{"sequence": "RRIRHRPPRLPRPRPRPHDYPRP", "shrunken log2 fold change": -0.0577}
{"sequence": "RRIRWRPPRLPRPRPRPDYDPRP", "shrunken log2 fold change": -0.246}
{"sequence": "RRIRDRPPRLPRPRPRPWFDPRP", "shrunken log2 fold change": -0.15}
{"sequence": "RRIRARPPRLPRPRPRPYDAPRP", "shrunken log2 fold change": 0.0611}
{"sequence": "RRIRGRPPRLPRPRPRPAFLPRP", "shrunken log2 fold change": 0.367}
{"sequence": "RRIRTRPPRLPRPRPRPQAGPRP", "shrunken log2 fold change": 0.107}
{"sequence": "RRIRYRPPRLPRPRPRPQPTPRP", "shrunken log2 fold change": 0.0156}
{"sequence": "RRIRSRPPRLPRPRPRPRNGPRP", "shrunken log2 fold change": 0.308}
{"sequence": "RRIRIRPPRLPRPRPRPRQVPRP", "shrunken log2 fold change": 0.0368}
{"sequence": "RRIRDRPPRLPRPRPRPKPNPRP", "shrunken log2 fold change": 0.45}
{"sequence": "RRIRQRPPRLPRPRPRPVQCPRP", "shrunken log2 fold change": -0.16}
{"sequence": "RRIRFRPPRLPRPRPRPIAAPRP", "shrunken log2 fold change": 0.417}
{"sequence": "RRIRKRPPRLPRPRPRPLKCPRP", "shrunken log2 fold change": -0.072}
{"sequence": "RRIRTRPPRLPRPRPRPVNRPRP", "shrunken log2 fold change": -0.0356}
{"sequence": "RRIRCRPPRLPRPRPRPMGYPRP", "shrunken log2 fold change": -0.0984}
{"sequence": "RRIRERPPRLPRPRPRPMHPPRP", "shrunken log2 fold change": 0.464}
{"sequence": "RRIRLRPPRLPRPRPRPQDYPRP", "shrunken log2 fold change": -0.31}
{"sequence": "RRIRSRPPRLPRPRPRPWWYPRP", "shrunken log2 fold change": -0.0611}
{"sequence": "RRIRSRPPRLPRPRPRPIYDPRP", "shrunken log2 fold change": 0.0384}
{"sequence": "RRIRARPPRLPRPRPRPHMLPRP", "shrunken log2 fold change": -0.196}
{"sequence": "RRIRARPPRLPRPRPRPPYWPRP", "shrunken log2 fold change": 0.376}
{"sequence": "RRIRERPPRLPRPRPRPHQFPRP", "shrunken log2 fold change": 0.00386}
{"sequence": "RRIRERPPRLPRPRPRPAPPPRP", "shrunken log2 fold change": 0.422}
{"sequence": "RRIRWRPPRLPRPRPRPMFPPRP", "shrunken log2 fold change": 0.0483}
{"sequence": "RRIRARPPRLPRPRPRPDTEPRP", "shrunken log2 fold change": 0.00829}
{"sequence": "RRIRQRPPRLPRPRPRPEETPRP", "shrunken log2 fold change": -0.0125}
{"sequence": "RRIRQRPPRLPRPRPRPPKWPRP", "shrunken log2 fold change": 0.136}
{"sequence": "RRIRFRPPRLPRPRPRPVRNPRP", "shrunken log2 fold change": 0.077}
{"sequence": "RRIRTRPPRLPRPRPRPHSEPRP", "shrunken log2 fold change": -0.0681}
{"sequence": "RRIRYRPPRLPRPRPRPYRMPRP", "shrunken log2 fold change": -0.725}
{"sequence": "RRIRNRPPRLPRPRPRPGACPRP", "shrunken log2 fold change": 0.0367}
{"sequence": "RRIRQRPPRLPRPRPRPPREPRP", "shrunken log2 fold change": 0.655}
{"sequence": "RRIRKRPPRLPRPRPRPMWPPRP", "shrunken log2 fold change": -0.00167}
{"sequence": "RRIRGRPPRLPRPRPRPSVMPRP", "shrunken log2 fold change": 0.107}
{"sequence": "RRIRRRPPRLPRPRPRPFLKPRP", "shrunken log2 fold change": -0.0464}
{"sequence": "RRIRLRPPRLPRPRPRPISEPRP", "shrunken log2 fold change": 0.00295}
{"sequence": "RRIRTRPPRLPRPRPRPMFGPRP", "shrunken log2 fold change": 0.115}
{"sequence": "RRIRNRPPRLPRPRPRPVVIPRP", "shrunken log2 fold change": -0.077}
{"sequence": "RRIRRRPPRLPRPRPRPLKRPRP", "shrunken log2 fold change": 0.161}
{"sequence": "RRIRPRPPRLPRPRPRPSTQPRP", "shrunken log2 fold change": -0.355}
{"sequence": "RRIRMRPPRLPRPRPRPWEFPRP", "shrunken log2 fold change": 0.0443}
{"sequence": "RRIRTRPPRLPRPRPRPFSCPRP", "shrunken log2 fold change": -0.0158}
{"sequence": "RRIRGRPPRLPRPRPRPKKHPRP", "shrunken log2 fold change": 0.655}
{"sequence": "RRIRYRPPRLPRPRPRPCRLPRP", "shrunken log2 fold change": 0.0249}
{"sequence": "RRIRIRPPRLPRPRPRPCGMPRP", "shrunken log2 fold change": 0.0729}
{"sequence": "RRIRGRPPRLPRPRPRPNYEPRP", "shrunken log2 fold change": 0.161}
{"sequence": "RRIRHRPPRLPRPRPRPLLGPRP", "shrunken log2 fold change": -0.107}
{"sequence": "RRIRCRPPRLPRPRPRPAEDPRP", "shrunken log2 fold change": 0.213}
{"sequence": "RRIRSRPPRLPRPRPRPQTYPRP", "shrunken log2 fold change": -0.16}
{"sequence": "RRIRLRPPRLPRPRPRPSMIPRP", "shrunken log2 fold change": -1.02}
{"sequence": "RRIRGRPPRLPRPRPRPSWKPRP", "shrunken log2 fold change": 0.437}
